The record followed here is paper PMC13134850.

In this assay the target is RadD adhesin of Fusobacterium nucleatum subsp. nucleatum ATCC 23726 (Fusobacterium nucleatum subsp. nucleatum ATCC 23726 (endogenous on the bacteria)). The experiment in a line: flow cytometry on cells.

The molecule “NKp46 fusion protein (NKp46 Ig) (human) (from UniProt O76036 22-258) (Fc fusion)” gave a fold increase in binding to ATCC 23726 ∆fad-I of 100 fold.

B1: Ncr-1 fusion protein (Ncr-1 Ig) (mouse) (Fc fusion)
chain: QRINTEKETLPKPIIWAKPSIMVTNGNSVNIWCQGAQSASEYQLYFEGSFFALERPKPSRSMNKVRFFISQMTSHTAGIYTCFYQSGELWSKSSNPLKLVVTGLYDTPNLWVYPRPEVTLGENVTFFCQLKTATSKFFLLKERGSNHIQNKYGNIQAEFPMGPVTRAHRGTYRCFGSYNDYAWSFPSEPVTLLITGGVENSSLAPTDPTSSLDYWEFDLSTNESGLQKDSAFWDHTTQN
The molecule B1 displayed a fold increase in binding to ATCC 23726 ∆fad-I of 100 fold.
